Experimental findings from PMC11316641 (Cell, 2024) are described below.

Data set [1] concerns the target WDR11-FAM91A1 complex (human) (UniProt Q658Y4). Nature of the data set: BLI.
Data set [2] concerns the molecule itself. The data set is described as follows: SEC-MALS.

WDR11-FAM91A1 complex (human), sequence (Q658Y4 whole entry, one chain of several): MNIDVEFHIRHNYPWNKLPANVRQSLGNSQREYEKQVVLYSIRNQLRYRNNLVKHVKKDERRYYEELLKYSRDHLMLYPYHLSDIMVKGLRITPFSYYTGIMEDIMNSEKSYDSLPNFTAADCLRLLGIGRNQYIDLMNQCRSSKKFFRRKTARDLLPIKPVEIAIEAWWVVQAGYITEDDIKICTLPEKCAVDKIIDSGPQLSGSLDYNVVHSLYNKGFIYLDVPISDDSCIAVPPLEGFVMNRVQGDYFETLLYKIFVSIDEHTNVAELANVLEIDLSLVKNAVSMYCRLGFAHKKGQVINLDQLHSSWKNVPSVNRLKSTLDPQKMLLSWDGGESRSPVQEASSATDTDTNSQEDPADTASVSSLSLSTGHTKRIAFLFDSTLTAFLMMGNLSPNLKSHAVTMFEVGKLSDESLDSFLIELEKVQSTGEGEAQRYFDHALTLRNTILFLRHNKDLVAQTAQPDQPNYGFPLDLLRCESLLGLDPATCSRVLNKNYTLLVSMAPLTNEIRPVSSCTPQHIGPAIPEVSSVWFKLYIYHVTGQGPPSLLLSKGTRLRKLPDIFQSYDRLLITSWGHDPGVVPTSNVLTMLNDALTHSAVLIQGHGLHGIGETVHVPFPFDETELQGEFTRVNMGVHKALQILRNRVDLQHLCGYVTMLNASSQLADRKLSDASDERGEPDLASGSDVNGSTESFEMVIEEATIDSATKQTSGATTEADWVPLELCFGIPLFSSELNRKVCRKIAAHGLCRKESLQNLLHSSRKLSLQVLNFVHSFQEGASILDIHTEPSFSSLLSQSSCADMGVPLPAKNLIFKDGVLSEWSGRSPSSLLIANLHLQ

In data set [1], CI-MPR AC1-WT peptide showed a dissociation constant (Kd) of 20.8 µM.

B1: WDR11 (natural protein, human)
chain: MLPYTVNFKVSARTLTGALNAHNKAAVDWGWQGLIAYGCHSLVVVIDSITAQTLQVLEKHKADVVKVKWARENYHHNIGSPYCLRLASADVNGKIIVWDVAAGVAQCEIQEHAKPIQDVQWLWNQDASRDLLLAIHPPNYIVLWNADTGTKLWKKSYADNILSFSFDPFDPSHLTLLTSEGIVFISDFSPSKPPSGPGKKVYISSPHSSPAHNKLATATGAKKALNKVKILITQEKPSAEFITLNDCLQLAYLPSKRNHMLLLYPREILILDLEVNQTVGVIAIERTGVPFLQVIPCFQRDGLFCLHENGCITLRVRRSYNNIFTTSNEEPDPDPVQELTYDLRSQCDAIRVTKTVRPFSMVCCPVNENAAALVVSDGRVMIWELKSAVCNRNSRNSSSGVSPLYSPVSFCGIPVGVLQNKLPDLSLDNMIGQSAIAGEEHPRGSILREVHLKFLLTGLLSGLPAPQFAIRMCPPLTTKNIKMYQPLLAVGTSNGSVLVYHLTSGLLHKELSIHSCEVKGIEWTSLTSFLSFATSTPNNMGLVRNELQLVDLPTGRSIAFRGERGNDESAIEMIKVSHLKQYLAVVFRDKPLELWDVRTCTLLREMSKNFPTITALEWSPSHNLKSLRKKQLATREAMARQTVVSDTELSIVESSVISLLQEAESKSELSQNISAREHFVFTDIDGQVYHLTVEGNSVKDSARIPPDGSMGSITCIAWKGDTLVLGDMDGNLNFWDLKGRVSRGIPTHRSWVRKIRFAPGKGNQKLIAMYNDGAEVWDTKEVQMVSSLRSGRNVTFRILDVDWCTSDKVILASDDGCIRVLEMSMKSACFRMDEQELTEPVWCPYLLVPRASLALKAFLLHQPWNGQYSLDISHVDYPENEEIKNLLQEQLNSLSNDIKKLLLDPEFTLLQRCLLVSRLYGDESELHFWTVAAHYLHSLSQEKSASTTAPKEAAPRDKLSNPLDICYDVLCENAYFQKFQLERVNLQEVKRSTYDHTRKCTDQLLLLGQTDRAVQLLLETSADNQHYYCDSLKACLVTTVTSSGPSQSTIKLVATNMIANGKLAEGVQLLCLIDKAADACRYLQTYGEWNRAAWLAKVRLNPEECADVLRRWVDHLCSPQVNQKSKALLVLLSLGCFFSVAETLHSMRYFDRAALFVEACLKYGAFEVTEDTEKLITAIYADYARSLKNLGFKQGAVLFASKAGAAGKDLLNELESPKEEPIEE
In the case of B1, the “stoichiometry N” value in data set [2] came to 2.
